Source: PMC5379923

Molecular target: monobody L3 E29Q labeled with EDANS at A12C
Assay: fluorescence polarisation

B1: Fluc homologue from Bordetella pertussis, Bpe (natural protein)
chain: MLTYAPLNFIAIGIGATLGAWLRWVLGLRLNGAGWPWGTLTANLVGGYLIGVMVALIASHPEWPAWIRLAAVTGFLGGLTTFSTFSAETVDMLERGVYATAAAYAGASLAGSLAMTGLGLATVRLLLR
- Kd: 150 nM
